Test results from patent US20030143198.

B1: 6-his tagged N-terminally truncated caspase 4 (protein)
chain: MGHHHHHHGALKLCPHEEFLRLCKERAEEIYPIKERNNRTRLALIICNTEFDHLPPRNGADFDITGMKELLEGLDYSVDVEENLTARDMESALRAFATRPEHKSSDSTFLVLMSHGILEGICGTVHDEKKPDVLLYDTIFQIFNNRNCLSLKDKPKVIIVQACRGANRGELWVRDSPTSLEVASSQSSENLEEDAVYKTHVEKDFIAFCSSTPHNVSWRDSTMGSIFITQLITCFQKYSWCCHLEEVFRKVQQSFETPRAKAQMPTIERLSMTRYFYLFPGN
B2: 6-his tagged N-terminally truncated caspase 5 (protein)
chain: MGHHHHHHGILKLCPREEFLRLCKKNHDEIYPIKKREDRRRLALIICNTKFDHLPARNGAHYDIVGMKRLLQGLGYTVVDEKNLTARDMESVLRAFAARPEHKSSDSTFLVLMSHGILEGICGTAHKKKKPDVLLYDTIFQIFNNRNCLSLKDKPKVIIVQACRGEKHGELWVRDSPASLAVISSQSSENLEADSVCKIHEEKDFIAFCSSTPHNVSWRDRTRGSIFITELITCFQKYSCCCHLMEIFRKVQKSFEVPQAKAQMPTIERATLTRDFYLFPGN
B3: Ubiquitin protease 1 (Ubp-1), full-length (protein)
chain: MDLFIESKINSLLQFLFGSRQDFLRNFKTWSNNNNNLSIYLLIFGIVVFFYKKPDHLNYIVESVSEMTTNFRNNNSLSRWLPRSKFTHLDEEILKRGGFIAGLVNDGNTCFMNSVLQSLASSRELMEFLDNNVIRTYEEIEQNEHNEEGNGQESAQDEATHKKNTRKGGKVYGKHKKKLNRKSSSKEDEEKSQEPDITFSVALRDLLSALNAKYYRDKPYFKTNSLLKAMSKSPRKNILLGYDQEDAQEFFQNILAELESNVKSLNTEKLDTTPVAKSELPDDALVGQLNLGEVGTVYIPTEQIDPNSILHDKSIQNFTPFKLMTPLDGITAERIGCLQCGENGGIRYSVFSGLSLNLPNENIGSTLKLSQLLSDWSKPEIIEGVECNRCALTAAHSHLFGQLKEFEKKPEGSIPEKLINAVKDRVHQIEEVLAKPVIDDEDYKKLHTANMVRKCSKSKQILISRPPPLLSIHINRSVFDPRTYMIRKNNSKVLFKSRLNLAPWCCDINEINLDARLPMSKKEKAAQQDSSEDENIGGEYYTKLHERFEQEFEDSEEEKEYDDAEGNYASHYNHTKDISNYDPLNGEVDGVTSDDEDEYIEETDALGNTIKKRIIEHSDVENENVKDNEELQEIDNVSLDEPKINVEDQLETSSDEEDVIPAPPINYARSFSTVPATPLTYSLRSVIVHYGTHNYGHYIAFRKYRGCWWRISDETVYVVDEAEVLSTPGVFMLFYEYDFDEETGKMKDDLEAIQSNNEEDDEKEQEQKGVQEPKESQEQGEGEEQEEGQEQMKFERTEDHRDISGKDVN

How the values were obtained:
[1] = molecular target: Human precursor IL-18 (Pro-IL-18), co-expressed in E. coli from the bicistronic pET28 cassette
[2] = molecular target: Human precursor IL-18 expressed as an N-terminal hexa-histidine tagged fusion
[3] = molecular target: Ubiquitin-IL-18 fusion (76 amino acid ubiquitin fused to the N-terminus of mature human IL-18)

Row | Protein | cleavage to mature IL-18 on co-expression in E. coli [1] | cleavage of prodomain, SDS-PAGE analysis [2] | processing of Ub-IL-18 to mature IL-18 on co-expression in E. coli (Western blot) [3]
1 | B1 | Cleavage to mature IL-18 with caspase-4 is complete by 4 hours at 37 °C or by 18 hours at 29 °C | The cleavage reaction of prodomain was completed >90 % according to SDS-PAGE analysis | –
2 | B2 | cleavage to mature EL-18 with caspase-5 is complete by 18 hours at 29 °C | The cleavage reaction of prodomain was completed >90 % according to SDS-PAGE analysis | –
3 | B3 | – | – | efficient processing of Ub-IL-18 to mature active IL-18
